Source: PMC12922802 (Cell, 2025)

B1: SRSF5 (natural protein, human, UniProt Q13243 1-272, looked up)
chain: MSGCRVFIGRLNPAAREKDVERFFKGYGRIRDIDLKRGFGFVEFEDPRDADDAVYELDGKELCSERVTIEHARARSRGGRGRGRYSDRFSSRRPRNDRRNAPPVRTENRLIVENLSSRVSWQDLKDFMRQAGEVTFADAHRPKLNEGVVEFASYGDLKNAIEKLSGKEINGRKIKLIEGSKRHSRSRSRSRSRTRSSSRSRSRSRSRSRKSYSRSRSRSRSRSRSKSRSVSRSPVPEKSQKRGSSSRSKSPASVDRQRSRSRSRSRSVDSGN
B2: SRSF3 (natural protein, human, UniProt P84103 1-164, looked up)
chain: MHRDSCPLDCKVYVGNLGNNGNKTELERAFGYYGPLRSVWVARNPPGFAFVEFEDPRDAADAVRELDGRTLCGCRVRVELSNGEKRSRNRGPPPSWGRRPRDDYRRRSPPPRRRSPRRRSFSRSRSRSLSRDRRRERSLSRERNHKPSRSFSRSRSRSRSNERK
B3: SRSF7 (natural protein, human, UniProt Q16629 1-238, looked up)
chain: MSRYGRYGGETKVYVGNLGTGAGKGELERAFSYYGPLRTVWIARNPPGFAFVEFEDPRDAEDAVRGLDGKVICGSRVRVELSTGMPRRSRFDRPPARRPFDPNDRCYECGEKGHYAYDCHRYSRRRRSRSRSRSHSRSRGRRYSRSRSRSRGRRSRSASPRRSRSISLRRSRSASLRRSRSGSIKGSRYFQSPSRSRSRSRSISRPRSSRSKSRSPSPKRSRSPSGSPRRSASPERMD

Assays:
[1] = target: SRSF1ΔIDR2; assay: right-angle light scattering
[2] = target: the molecule itself; assay: right-angle light scattering
[3] = target: the molecule itself

Molecule | threshold concentration for microphase separation (cμ) [1] | threshold concentration for microphase separation (cμ) [2] | stoichiometry N [3]
SRSF1ΔIDR2 (domain or fragment) | 0.44 µM | – | –
B1 | – | 9.5 ± 0.71 µM | ~14 molecules per microphase
B2 | – | 2 ± 0.14 µM | ~93 molecules per microphase
B3 | – | 1 ± 0.14 µM | ~8 molecules per microphase
